Assay results as given in US20050153310A1 (PROMEGA, published 2005).

Biological target: FKBP (FK506 binding protein) (UniProt P62942 2-108)
Experiment: cell-based or functional assay

Sequence of FKBP (FK506 binding protein) (P62942 2-108): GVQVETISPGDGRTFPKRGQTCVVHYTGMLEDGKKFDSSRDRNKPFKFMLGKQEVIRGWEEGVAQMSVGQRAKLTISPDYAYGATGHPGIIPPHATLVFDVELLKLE

fold decrease in relative luminescence of the in vitro translated double fusion FRB-luc2-FKBP with 0.2 uM rapamycin, compared to the control reactions: 20 fold | luminescent signal of D293 cells transfected with FRB-Luc2-FKBP under the CMV promoter, with rapamycin: ≤ 2 fold | luminescent signal of D293 cells transfected with FRB-Luc2-FKBP under the TK promoter, with rapamycin: ≤ 5 fold
B1: FRB (rapamycin binding protein) (other)
chain: ILWHEMWHEGLEEASRLYFGERNVKGMFEVLEPLHAMMERGPQTLKETSFNQAYGRDLMEAQEWCRKYMKSGNVKDLTQAWDLYYHVFRRISK
